Laboratory results published in US7632650B2, “Diagnostics and therapeutic uses of topors” (University of Medicine and Dentistry of New Jersey, priority 2002, dated 2009).
Blank lines part the entries; values can stand above or below the molecule they belong to.

Tests used:
[1] = tested on: HeLa cells expressing GFP-topors or GFP-PML; experiment: imaging of GFP-topors or GFP-PML in nuclear bodies before and after treatment; assay type: cell-based, human; conditions: 10 μM, thirty minutes
Experimental: Acute promyelocytic leukemia, a type of cancer affecting the blood, is characterized by an abnormal block in the development of stem cells. It has now been discovered that topors localizes in nuclear bodies associated with promyelocytic leukemia (PML) oncogenic domains. In these experiments HeLa cells were immunostained with antibodies recognizing both topors and PML. Separate and merged fluorescent images from a representative cell were analyzed. PML nuclear bodies are nuclear depot sites, which are disrupted in cells from patients with promyelocytic leukemia with t (15;17) . Topors relocalized to the nucleoplasm after DNA damage. […] In these experiments, HeLa cells expressing GFP-topors or GFP-PML were imaged before and after treatment with 0.1% DMSO, 10 μM DRB, 10 μM CPT, or 30 μM cycloheximide for thirty minutes.

top1 = target: T1, top1 (Homo sapiens, UniProt P11387); experiment: in vitro top1 sumoylation with purified components; assay type: biochemical; conditions: purified sumo conjugation components, purified top1 and topors
T1 sequence (P11387 1-765): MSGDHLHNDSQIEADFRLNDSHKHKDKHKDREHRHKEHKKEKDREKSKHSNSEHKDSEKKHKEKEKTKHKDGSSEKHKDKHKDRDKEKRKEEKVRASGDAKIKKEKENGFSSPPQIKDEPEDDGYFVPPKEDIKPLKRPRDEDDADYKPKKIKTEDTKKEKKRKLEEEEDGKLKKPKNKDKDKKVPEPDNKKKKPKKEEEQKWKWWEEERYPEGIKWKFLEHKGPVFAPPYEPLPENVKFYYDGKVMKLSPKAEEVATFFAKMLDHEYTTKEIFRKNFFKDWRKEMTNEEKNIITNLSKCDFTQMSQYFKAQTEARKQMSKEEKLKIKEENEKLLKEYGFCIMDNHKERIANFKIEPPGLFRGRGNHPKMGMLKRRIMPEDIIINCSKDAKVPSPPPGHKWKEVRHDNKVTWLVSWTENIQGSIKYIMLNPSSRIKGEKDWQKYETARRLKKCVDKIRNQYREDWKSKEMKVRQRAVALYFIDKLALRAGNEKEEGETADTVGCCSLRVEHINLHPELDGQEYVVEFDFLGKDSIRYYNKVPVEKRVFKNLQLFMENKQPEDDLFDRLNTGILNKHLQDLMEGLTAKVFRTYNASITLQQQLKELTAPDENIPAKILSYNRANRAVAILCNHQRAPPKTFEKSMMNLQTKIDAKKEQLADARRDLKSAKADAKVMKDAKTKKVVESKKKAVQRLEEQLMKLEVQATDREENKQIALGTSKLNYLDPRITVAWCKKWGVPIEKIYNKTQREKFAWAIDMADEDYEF
Experimental: Topors is homologous in the RING domain to proteins implicated in conjugation of ubiquitin and SUMO, such as MDM2 and BRCA1. Previously, it has been shown that topors binds to the N-terminus of top1. […] Topors also redistributes from PML (promyelocytic leukemia) nuclear bodies to a diffuse nuclear localization when exposed to CPT. When incubated with a HeLa cell fraction containing SAE1/SAE2, purified SUMO-1, and purified Ubc9, minimal top1-SUMO conjugates could be detected using Top1 and SUMO antibodies.
Using purified components of the sumo conjugation system as well as purified top1 and topors, top1-SUMO conjugates were detected. Removing any of the sumoylation components or topors abrogated top1 sumoylation.

[2] = tested on: cervical cancer cell line; experiment: overexpression of topors in cancer cell line; assay type: cell-based
Excerpt: The topors protein was not detected in lysates from several different tumor cell lines. In this regard, in matched normal and tumor human tissue specimens, the topors protein was detectable only in normal tissues (FIGS. 3 and 4).

p53 = p53 (Homo sapiens, UniProt P04637); experiment: in vitro sumoylation of p53; assay type: biochemical; conditions: E1 and Ubc9
Experimental: (§1) Reaction products were analyzed using monoclonal anti-p53 and polyclonal anti-IkBα antibodies.

mammalian cells = experiment: SUMO-2 conjugate formation in cells; assay type: cell-based
Excerpt: Additionally, it was shown that topors functions as an E3-type ubiquitin ligase an E3-type SUMO ligase for topoisomerase and p53. Thus, topors is a dual function ubiquitin and SUMO ligase. Recombinant topors enhances formation of polyubiquitin conjugates by specific E2 ubiquitin enzymes in vitro, with the RING domain necessary and sufficient for this activity. While topors-induced ubiquitination of bacterially expressed top1 was unable to be detected in vitro, similar assays using Ubc9, SAE1/SAE2, and SUMO-1 indicate that topors stimulates formation of top1-SUMO-1 conjugates by Ubc9. […] Instead, this activity maps to the 536-704 region, which contains a nuclear localization sequence and is within the top1-binding region. Ectopic expression of topors in HeLa cells increases formation of SUMO-2 conjugates.
as §1

ubiquitin = experiment: in vitro ubiquitination reaction with E1, E2 proteins and ubiquitin; assay type: biochemical; conditions: 400 ng E1, 200 ng E2, 3 μg ubiquitin, ~100 ng GST-topors or GST
Experimental: This analysis was carried out using reactions containing 400 ng E1, 200 ng of various E2 proteins, 3 μg of ubiquitin, and either ˜100 ng GST-topors or GST. Reaction products were resolved by SDS-PAGE under reducing conditions. Migration of probable poly-ubiquitin chains was determined. All E2s were active as assessed by thiolester formation.

IkBα = target: T2, IkBα (Homo sapiens, UniProt P25963); experiment: in vitro sumoylation of IkBα; assay type: biochemical; conditions: E1 and Ubc9
T2 sequence (P25963 1-317): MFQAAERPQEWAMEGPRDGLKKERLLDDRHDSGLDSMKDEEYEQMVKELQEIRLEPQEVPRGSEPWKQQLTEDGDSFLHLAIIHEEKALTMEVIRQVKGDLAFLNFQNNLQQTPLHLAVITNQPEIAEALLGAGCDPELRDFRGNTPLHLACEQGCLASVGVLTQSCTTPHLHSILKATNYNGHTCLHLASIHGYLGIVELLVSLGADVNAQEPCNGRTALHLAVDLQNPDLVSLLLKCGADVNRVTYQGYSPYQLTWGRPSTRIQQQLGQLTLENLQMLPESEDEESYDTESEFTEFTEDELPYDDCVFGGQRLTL
Experimental: as §1

Chain of p53 (P04637 whole entry, species assumed): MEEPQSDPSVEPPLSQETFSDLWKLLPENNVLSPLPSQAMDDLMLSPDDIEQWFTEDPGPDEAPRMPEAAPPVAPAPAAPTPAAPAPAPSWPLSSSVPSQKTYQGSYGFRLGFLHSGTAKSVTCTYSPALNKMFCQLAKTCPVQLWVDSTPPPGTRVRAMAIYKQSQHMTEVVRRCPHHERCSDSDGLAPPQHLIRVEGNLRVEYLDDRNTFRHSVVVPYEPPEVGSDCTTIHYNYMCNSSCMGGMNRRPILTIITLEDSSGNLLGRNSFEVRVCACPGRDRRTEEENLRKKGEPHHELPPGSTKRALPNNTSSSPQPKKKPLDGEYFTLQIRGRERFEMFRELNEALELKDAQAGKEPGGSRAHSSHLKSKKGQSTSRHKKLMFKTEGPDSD

Molecule: CC[C@@]1(O)C(=O)OCc2c1cc1n(c2=O)Cc2cc3ccccc3nc2-1 [CPT, camptothecin]
dispersion of topors / PML from nuclear bodies [1]: induce rapid dispersion of topors but not PML from nuclear bodies

Molecule: OC[C@H]1O[C@@H](n2cnc3cc(Cl)c(Cl)cc32)[C@H](O)[C@@H]1O [DRB]
dispersion of topors / PML from nuclear bodies [1]: induce rapid dispersion of topors but not PML from nuclear bodies

top1 sumoylation in vitro (top1): enhances top1 sumoylation in vitro
sumoylation of p53 (p53): activates sumoylation of p53
E3 ubiquitin ligase function (poly-ubiquitin chains) (ubiquitin): functions as an E3 ubiquitin ligase
sumoylation of IkBα (IkBα): not IkBα
B1: topors: RING protein that binds topoisomerase 1 and p53; dual E3 ubiquitin/SUMO ligase (protein)
chain: MGSQPPLGSPLSREEGEAPPPAPASEGRRRSRRVRLRGSCRHRPSFLGCRELAASAPARPAPASSEIMASAAKEFKMDNFSPKAGTSKLQQTVPADASPDSKCPICLDRFDNVSYLDRCLHKFCFRCVQEWSKNKAECPLCKQPFDSIFHSVRAEDDFKEYVLRPSYNGSFVTPDRRFRYRTTLTRERNASVYSPSGPVNRRTTTPPDSGVLFEGLGISTRPRDVEIPQFMRQIAVRRPTTADERSLRKIQEQDIINFRRTLYRAGARVRNIEDGGRYRDISAEFFRRNPACLHRLVPWLKRELTVLFGAHGSLVNIVQHIIMSNVTRYDLESQAFVSDLRPFLLNRTEHFIHEFISFARSPFNMAAFDQHANYDCPAPSYEEGSHSDSSVITISPDEAETQELDINVATVSQAPWDDETPGPSYSSSEQVHVTMSSLLNTSDSSDEELVTGGATSQIQGVQTNDDLNNDSDDSSDNCVIVGFVKPLAERTPELVELSSDSEDLGSYEKMETVKTQEQEQSYSSGDSDVSRCSSPHSVLGKDEQINKGHCDSSTRIKSKKEEKRSTSLSSPRNLNSSVRGDRVYSPYNHRHRKRGRSRSSDSRSQSRSGHDQKNHRKHHGKKRMKSKRSRSRESSRPRGRRDKKRSRTRDSSWSRRSQTLSLSSESTSRSRSRSSDHGKRRSRSRNRDRYYLRNNYGSRYKWEYTYYSRNKDRDGYESSYRRRTLSRAHYSRQSSSPEFRVQSFSERTNARKKNNHSERKYYYYERHRSRSLSSNRSRTASTGTDRVRNEKPGGKRKYKTRHLEGTNEVAQPSREFASKAKDSHYQKSSSKLDGNYKNESDTFSDSRSSDRETKHKRRKRKTRSLSVEIVYEGKATDTTKHHKKKKKKHKKKHKKHHGDNASRSPVVITIDSDSDKDSEVKEDTECDNSGPQDPLQNEFLAPSLEPFETKDVVTIEAEFGVLDKECDIATLSNNLNNANKTVDNIPPLAASVEQTLDVREESTFVSDLENQPSNIVSLQTEPSRQLPSPRTSLMSVCLGRDCDMS
effect of overexpression on cancer cells [2]: cell death
SUMO-2 conjugates (mammalian cells): increases SUMO-2 conjugates
